In this series the target is purified C3b (Complement Technology, Inc. #A114), P01024.
Sequence of purified C3b (Complement Technology, Inc. #A114), P01024 (P01024 whole entry, looked up): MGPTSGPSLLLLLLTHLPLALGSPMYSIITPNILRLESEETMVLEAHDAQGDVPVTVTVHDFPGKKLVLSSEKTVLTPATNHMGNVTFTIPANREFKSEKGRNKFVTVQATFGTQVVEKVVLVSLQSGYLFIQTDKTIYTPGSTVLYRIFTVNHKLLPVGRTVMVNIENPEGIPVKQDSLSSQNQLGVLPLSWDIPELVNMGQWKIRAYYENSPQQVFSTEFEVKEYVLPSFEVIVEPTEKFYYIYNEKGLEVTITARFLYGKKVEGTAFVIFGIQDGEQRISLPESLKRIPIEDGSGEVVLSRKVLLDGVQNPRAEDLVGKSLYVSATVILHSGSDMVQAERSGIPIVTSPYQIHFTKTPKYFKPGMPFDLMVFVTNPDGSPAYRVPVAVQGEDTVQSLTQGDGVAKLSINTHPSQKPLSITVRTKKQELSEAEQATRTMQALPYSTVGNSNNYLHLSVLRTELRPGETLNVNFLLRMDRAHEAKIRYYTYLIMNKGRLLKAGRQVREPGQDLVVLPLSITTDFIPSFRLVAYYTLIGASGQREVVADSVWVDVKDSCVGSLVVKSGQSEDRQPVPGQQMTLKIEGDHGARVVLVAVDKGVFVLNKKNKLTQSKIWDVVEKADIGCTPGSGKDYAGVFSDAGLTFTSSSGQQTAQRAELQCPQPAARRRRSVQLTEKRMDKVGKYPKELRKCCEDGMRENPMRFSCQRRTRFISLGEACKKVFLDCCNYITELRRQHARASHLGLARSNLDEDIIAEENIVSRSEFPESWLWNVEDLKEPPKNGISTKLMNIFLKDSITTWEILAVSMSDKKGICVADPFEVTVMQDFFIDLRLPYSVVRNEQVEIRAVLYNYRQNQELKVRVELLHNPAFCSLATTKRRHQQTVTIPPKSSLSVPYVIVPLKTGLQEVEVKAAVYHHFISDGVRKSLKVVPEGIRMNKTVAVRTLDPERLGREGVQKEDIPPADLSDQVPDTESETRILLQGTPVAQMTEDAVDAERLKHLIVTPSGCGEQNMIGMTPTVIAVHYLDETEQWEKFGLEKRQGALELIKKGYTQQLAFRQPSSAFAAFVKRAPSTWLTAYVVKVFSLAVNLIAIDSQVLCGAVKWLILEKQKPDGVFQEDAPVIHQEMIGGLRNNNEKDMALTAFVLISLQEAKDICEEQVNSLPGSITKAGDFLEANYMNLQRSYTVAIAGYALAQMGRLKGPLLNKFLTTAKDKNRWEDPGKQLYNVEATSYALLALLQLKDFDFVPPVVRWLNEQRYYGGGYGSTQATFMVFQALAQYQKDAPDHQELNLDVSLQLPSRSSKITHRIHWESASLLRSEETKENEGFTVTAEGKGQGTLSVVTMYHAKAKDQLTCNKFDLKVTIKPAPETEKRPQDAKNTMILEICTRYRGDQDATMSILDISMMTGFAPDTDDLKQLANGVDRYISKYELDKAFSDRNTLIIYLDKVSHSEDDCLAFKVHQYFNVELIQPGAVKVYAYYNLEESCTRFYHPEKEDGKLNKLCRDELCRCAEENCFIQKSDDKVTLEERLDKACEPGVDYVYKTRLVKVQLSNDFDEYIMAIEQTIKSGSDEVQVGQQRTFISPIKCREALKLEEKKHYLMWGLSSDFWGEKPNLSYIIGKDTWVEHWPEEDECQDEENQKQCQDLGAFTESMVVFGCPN

B1: human Complement Factor I (hCFI) expressed from the AAV-CFI-1.0 vector, secreted into cell media of transduced rabbit retinal explants (protein)
chain: KVTYTSQEDLVEKKCLAKKYTHLSCDKVFCQPWQRCIEGTCVCKLPYQCPKNGTAVCATNRRSFPTYCQQKSLECLHPGTKFLNNGTCTAEGKFSVSLKHGNTDSEGIVEVKLVDQDKTMFICKSSWSMREANVACLDLGFQQGADTQRRFKLSDLSINSTECLHVHCRGLETSLAECTFTKRRTMGYQDFADVVCYTQKADSPMDDFFQCVNGKYISQMKACDGINDCGDQSDELCCKACQGKGFHCKSGVCIPSQYQCNGEVDCITGEDEVGCAGFASVTQEETEILTADMDAERRRIKSLLPKLSCGVKNRMHIRRKRIVGGKRAQLGDLPWQVAIKDASGITCGGIYIGGCWILTAAHCLRASKTHRYQIWTTVVDWIHPDLKRIVIEYVDRIIFHENYNAGTYQNDIALIEMKKDGNKKDCELPRSIPACVPWSPYLFQPNDTCIVSGWGREKDNERVFSLQWGEVKLISNCSKFYGNRFYEKEMECAGTYDGSIDACKGDSGGPLVCMDANNVTYVWGVVSWGENCGKPEFPGVYTKVANYFDWISYHVGRPFISQYNV
Turning to B1, the “C3b cleavage assay (Western blot stained with anti-C3 antibody; appearance of iC3b 68 kDa and 43 kDa bands), in the presence of purified CFH” value was “The iC3b 43 kDa polypeptide is present in all lanes containing cell media from rabbit explants transduced with AAV-CFI-1.0 package into either AAV2.7m8 or AAV2.5T-LSV1 capsid serotypes”.
